Data: US20260209331A1 (published 2026)

T1: P19 subunit of human IL-23 (IL23p19) (UniProt Q9NPF7 20-189)
T1 chain: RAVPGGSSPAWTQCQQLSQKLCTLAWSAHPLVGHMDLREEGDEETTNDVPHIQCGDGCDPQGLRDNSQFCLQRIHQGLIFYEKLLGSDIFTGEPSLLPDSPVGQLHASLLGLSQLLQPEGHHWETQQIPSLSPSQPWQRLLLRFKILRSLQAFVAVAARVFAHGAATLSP

B1: BsAb #C8 (antibody)
chain 1: not shown
chain 2: EIVLTQSPATLSLSPGERATLSCRASQSVYSYLAWYQQKPGQAPRLLIYDASNRATGIPARFSGSGSGTDFTLTISSLEPEDFAVYYCQQRSNWPPFTFGPGTKVDIKGGGGSGGGGSGGGGSDIQMTQSPSSLSASVGDRVTITCRTSENIYSYLAWYQQKPGKAPKLLIYNAKTLAEGVPSRFSGSGSGTDFTLTISSLQPEDFATYYCQHHYGIPFTFGQGTKVEIKRTVAAPSVFIFPPSDEQLKSGTASVVCLLNNFYPREAKVQWKVDNALQSGNSQESVTEQDSKDSTYSLSSTLTLSKADYEKHKVYACEVTHQGLSSPVTKSFNRGEC
B2: BsAb #D3 (antibody)
chain 1: not shown
chain 2: DIQMTQSPSSLSASVGDRVTITCRTSENIYSYLAWYQQKPGKAPKLLIYNAKTLAEGVPSRFSGSGSGTDFTLTISSLQPEDFATYYCQHHYGIPFTFGQGTKVEIKRTVAAPSVFIFPPSDEQLKSGTASVVCLLNNFYPREAKVQWKVDNALQSGNSQESVTEQDSKDSTYSLSSTLTLSKADYEKHKVYACEVTHQGLSSPVTKSFNRGEC
B3: BsAb #D4 (antibody)
chain 1: not shown
chain 2: B2 chain 2
B4: BsAb #A8 (antibody)
chain 1: EIVLTQSPATLSLSPGERATLSCRASQSVYSYLAWYQQKPGQAPRLLIYDASNRATGIPARFSGSGSGTDFTLTISSLEPEDFAVYYCQQRSNWPPFTFGPGTKVDIKASTKGPSVFPLAPSSKSTSGGTAALGCLVKDYFPEPVTVSWNSGALTSGVHTFPAVLQSSGLYSLSSVVTVPSSSLGTQTYICNVNHKPSNTKVDKKV
chain 2: B2 chain 2
chain 3: not shown
chain 4: not shown
B5: BsAb #B8 (antibody)
chain 1: not shown
chain 2: B2 chain 2
B6: BsAb #A7 (antibody)
chain 1: not shown
chain 2: B2 chain 2
chain 3: not shown
chain 4: not shown
B7: BsAb #B7 (antibody)
chain 1: not shown
chain 2: B2 chain 2
B8: BsAb #A6 (antibody)
chain 1: B4 chain 1
chain 2: not shown
chain 3: not shown
chain 4: not shown

molecular target: T2, human TNF alpha (TNFα) (UniProt P01375 77-233); experiment: SPR
T2 sequence (P01375 77-233): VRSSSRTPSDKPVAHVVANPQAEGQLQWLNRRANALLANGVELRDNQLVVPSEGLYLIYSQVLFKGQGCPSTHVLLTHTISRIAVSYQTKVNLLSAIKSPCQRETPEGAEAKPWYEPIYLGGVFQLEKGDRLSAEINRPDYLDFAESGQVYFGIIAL

Binder	Kd [nM]
B1	0.1
B2	0.16
B3	0.49
B4	1.09
B5	0.42
B6	0.58
B7	0.87
B8	0.39

Molecular target: T1, P19 subunit of human IL-23 (IL23p19)
Experiment: SPR

Binder	Kd [nM]
B1	1.66
B2	0.2
B3	0.11
B4	0.08
B5	0.07
B6	0.08
B7	0.1
B8	0.04

molecular target: T2, human TNF alpha (TNFα); experiment: SPR; pre-bound with IL23p19

Binder	Kd [nM]
B2	0.12
B3	0.41
B5	0.41
B7	0.93
